Experimental data reported in patent publication US20040180354A1 (MANNKIND, published 2004).
Each block holds one binder with its values, some of them ahead of it.

Legend:
[1] = molecular target: T1, HLA-A2.1 (HLA-A*0201) on the surface of T2 cells (human); assay: T2 cell HLA-A2.1 stabilisation, flow cytometry with FITC anti-HLA A2, A28
T1 construct: MHC class I molecule on T2 cells

[2] = molecular target: T1, HLA-A2.1 (HLA-A*0201) on the surface of …; assay: T2 cell HLA-A*0201 stabilisation, flow cytometry
[3] = molecular target: T1, HLA-A2.1 (HLA-A*0201) on the surface of …; assay: HLA-A2 binding assay, FACS profiles (T2 cells); the weaker of the two 9-mers
[4] = molecular target: T1, HLA-A2.1 (HLA-A*0201) on the surface of …; assay: HLA-A2 binding assay, FACS profiles (T2 cells)

- binding result [1]: binds
Binder: KASEKIFYV (also called 15) [SSX-2 41-49, KASEKIFYV]

- binding result [2]: binds
B1: PSMA663-671 (SEQ ID NO. 66) (peptide)
peptide: MMNDQLMFL
notes: Synthetic 9-mer from prostate specific membrane antigen

- binding result [3]: binds
B2: tyrosinase208-216, LPWHRLFLL (peptide)
peptide: LPWHRLFLL
notes: Synthetic 9-mer from tyrosinase; also called Tyr 208-216

- binding result [4]: binds
B3: tyrosinase207-215, FLPWHRLFL (peptide)
peptide: FLPWHRLFL
notes: Synthetic 9-mer from tyrosinase; also called Tyr 207-215
